# Test results from US20130136691A1 (BRACCO IMAGING S P A, published 2013).
# T1: neuromedin-B preferring receptor (NMB-R) on C6 rodent glioblastoma cells (rodent, UniProt P24053 1-390, limits assumed)
# T1 construct: whole, on cells; also called C6/NMB-R
# T1 sequence (looked up): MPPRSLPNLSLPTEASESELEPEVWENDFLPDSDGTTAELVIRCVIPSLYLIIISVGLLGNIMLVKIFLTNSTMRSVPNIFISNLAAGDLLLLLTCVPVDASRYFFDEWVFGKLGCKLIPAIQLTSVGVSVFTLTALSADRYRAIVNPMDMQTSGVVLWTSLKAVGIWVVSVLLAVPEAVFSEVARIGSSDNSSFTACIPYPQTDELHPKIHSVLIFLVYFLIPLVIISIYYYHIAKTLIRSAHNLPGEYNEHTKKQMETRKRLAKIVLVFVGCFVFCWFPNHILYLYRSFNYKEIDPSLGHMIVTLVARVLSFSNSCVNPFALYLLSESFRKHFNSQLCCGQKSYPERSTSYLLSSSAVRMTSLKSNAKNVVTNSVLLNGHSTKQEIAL
# How the values were obtained:
# [1] = target: T1, neuromedin-B preferring receptor …; assay: 125I-NMB competition, C6 cells
# [2] = target: T2, gastrin releasing peptide receptor (GRP-R) (human, UniProt P30550 1-384); assay: 125I-BBN competition, PC3 cells
# T2 construct: whole, on cells; also called GRP receptor; BB2
# T2 sequence (P30550 whole entry): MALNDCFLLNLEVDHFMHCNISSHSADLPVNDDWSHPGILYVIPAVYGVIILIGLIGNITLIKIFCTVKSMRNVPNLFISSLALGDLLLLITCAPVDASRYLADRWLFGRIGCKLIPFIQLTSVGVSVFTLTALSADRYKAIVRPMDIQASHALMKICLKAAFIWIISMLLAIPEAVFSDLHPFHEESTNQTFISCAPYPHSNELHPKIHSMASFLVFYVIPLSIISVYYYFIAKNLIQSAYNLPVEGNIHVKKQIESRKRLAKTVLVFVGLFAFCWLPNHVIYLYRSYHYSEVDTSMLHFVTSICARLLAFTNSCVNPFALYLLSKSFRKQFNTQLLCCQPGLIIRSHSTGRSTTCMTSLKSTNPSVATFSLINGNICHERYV
IC50 [1] [nM],IC50 [2] [nM],Binder
60,–,"QWAVGHLM (N-term: N,N-dimethylglycine-Ser-Cys(Acm)-Gly-Lys-Glu; C-term amide) [N,N-dimethylglycine-Ser-Cys(Acm)-Gly-KE-QWAVGHLM-NH2]"
2,–,"QWAVGHLM (N-term: N,N-dimethylglycine-Ser-Cys(Acm)-Gly-Ser-Arg; C-term amide) [N,N-dimethylglycine-Ser-Cys(Acm)-Gly-SR-QWAVGHLM-NH2]"
–,2,"QWAVGHLM (N-term: N,N-dimethylglycine-Ser-Cys(Acm)-Gly-Ser-Lys; C-term amide) [N,N-dimethylglycine-Ser-Cys(Acm)-Gly-SK-QWAVGHLM-NH2]"
